What was measured:
hair (human) [1] = assay: Quantitative binding to hair (KBD activity test hair, Example 10); conditions: for binding to hair, KBD-B compared with comparison protein: binding test on hair, result in words; for measured absorption values at 405 nm (quantitative KBD activity test hair): human hair, detection via His tag with antibody-peroxidase conjugate and TMB
Experimental: In this test, hair was firstly incubated with KBD and excess KBD was washed off. An antibody-peroxidase conjugate was then coupled via the His tag of the KBD. Nonbound antibody-peroxidase conjugate was washed off again. The bound anti body-peroxidase conjugate [Monoclonal AntipolyHistidine Peroxidase Conjugate, produced in mouse, lyophilized powder, Sigma] can convert a colorless substrate (TMB) into a colored product, which can be measured photometrically at 405 nm. The intensity of the absorption indicates the amount of bound KBD or comparison protein. The comparison protein chosen was, for example, YaaD from B. subtilis, which likewise had—as is necessary for this test—a His tag for the detection. Instead of the His tag, other specific antibodies conjugated with peroxidase can also be used.
(or at least 2 h at room temperature) with gentle swinging movements. • Centrifugation, removal of the supernatant • 3× washing with PBS […] • Incubation with 1 ml monoclonal mouse anti-tag (His6 or HA) antibodies with peroxidase:conjugate (1:2000 in PBS/0.05% Tween 20) [Monoclonal AntipolyHistidine Peroxidase Conjugate, produced in mouse, lyophilized powder, Sigma] for 2-4 h at room temperature, gentle swinging movement • 3× washing with PBS/0.05% Tween 20 • Addition of peroxidase substrate (1 ml/Eppendorf vessel) • Allow reaction to proceed until blue coloration (about 2 minutes). • Stop the reaction with […] of 2 M H2SO4. • The absorption is measured at 405 nm.
Peroxidase Substrate (Prepare Shortly Beforehand):
0.1 ml TMB solution (42 mM TMB in DMSO) +10 ml of substrate buffer (0.1 M sodium acetate pH 4.9) +14.7 μl H2O2 3% strength BSA=Bovine serum albumin PBS=Phosphate buffered salt solution
Tween 20=polyoxyethylene sorbitan monolaureate, n about 20
TMB=3,5,3′,5′-tetramethylbenzidine

[2] = molecular target: human hair keratin (human hair, cut into 5 mm sections) (human); assay: quantitative hair binding test, anti-polyHis peroxidase conjugate, TMB
[3] = molecular target: human skin keratin (human); assay: quantitative skin binding test, loss relative to untreated skin after 10% strength SDS treatment
[4] = molecular target: human hair keratin (human hair, cut into 5 mm sections) (human); assay: quantitative hair binding test, anti-polyHis peroxidase conjugate, TMB; protein renatured
[5] = molecular target: human hair keratin (human hair, cut into 5 mm sections) (human); assay: quantitative hair binding test, anti-polyHis peroxidase conjugate, TMB; protein denatured (not renatured)
[6] = molecular target: human skin keratin (human); assay: quantitative skin binding test (human keratinocytes in microtiter plates), anti-His antibody, TMB; conditions: scale: absorption at 405 nm, standardized to the surface
[7] = molecular target: human hair keratin (human hair, cut into 5 mm sections) (human); assay: quantitative hair binding test, loss relative to untreated hair after 10% strength SDS treatment
[8] = molecular target: human skin keratin (human); assay: quantitative skin binding test (human keratinocytes in microtiter plates), anti-His antibody, TMB; after 10% strength SDS treatment; conditions: scale: absorption at 405 nm, standardized to the surface
hair = assay: Hair-binding activity of KBD-B-panthenol (Example 24a)
Experimental: In order to check whether KBD-B also binds with coupled panthenol to hair, a quantitative binding assay was carried out (see FIG. 6): In this test, hair was firstly incubated with KBD-B-panthenol and nonbound KBD-B-panthenol was washed off. A peroxidase was then coupled via the His tag of the KBD-B. Nonbound peroxidase was washed off again. The bound peroxidase can convert a colorless substrate (TMB) into a colored product which was measured photometrically at 405 nm. The intensity of the absorption indicates the amount of bonded KBD-B-panthenol. As comparison sample, KBD-B without panthenol was chosen.
Only above a mixing ratio of 1:4 does the hair binding activity decrease. Coupling to lysines or cysteines present in the protein structure which is no longer selective could be responsible for this, which could lead to an unfolding and thus poorer hair coupling of the protein.

hair (human) [9] = assay: Quantitative binding to hair (Example 15); conditions: relative to untreated hair
Experimental: (§1) In order to investigate the binding strength of the KBD-D (SEQ ID No.:168) to skin and hair compared to the KBD-B (SEQ ID No.:166), a quantitative test was carried out. In this test firstly hair was incubated with KBD-B or KBD-D and excess KBD-D or -D was washed off. An antibody-peroxidase conjugate was then coupled via the His/tag of the KBD-B or -D. Nonbound antibody-peroxidase conjugate was washed off again. The bound antibody-peroxidase conjugate can convert a colorless substrate (TMB) into a colored product, which was measured photometrically at 405 nm. The intensity of the absorption indicates the amount of bound KBD-B or -D.
In order to characterize the hair binding of the KBD-D compared to the KBD-B, the following binding assay was carried out:
5 mg of hair (human) were cut into sections 5 mm in length and transferred to Eppendorf vessels (protein low-bind). • addition of 1 ml of ethanol for degreasing • centrifugation, removal of ethanol and washing of the hair with H2O • centrifugation, removal of the supernatant • addition of the keratin-binding domains to be tested (coupled to tag—e.g. His6, HA etc.) in 1 ml of PBS/0.05% Tween 20; incubation for 2 h at room temperature with gentle swinging movements • centrifugation, removal of the supernatant • 3× washing with PBS/0.05% Tween 20 • incubation with 1 ml monoclonal mouse anti-tag-(His6 or HA) antibodies with peroxidase conjugate (1:2000 in PBS/0.05% Tween 20) [Monoclonal AntipolyHistidine Peroxidase Conjugate, produced in mouse, lyophilized powder, Sigma] for 2-4 h at room temperature, gentle swinging movement • 3× washing with PBS/0.05% Tween 20 • addition of peroxidase substrate (1 ml/Eppendorf vessel) • allow reaction to proceed until blue coloration (90 seconds). • stop the reaction with 100 μl of 2 M H2SO4.
The absorption was measured at 405 nm
(§2) Peroxidase Substrate (Prepared Shortly Beforehand):
0.1 ml TMB solution (42 mM TMB in DMSO) +10 ml substrate buffer (0.1 M sodium acetate pH 4.9) +14.7 μl H2O2 3% strength BSA=bovine serum albumin PBS=phosphate buffered salt solution Tween 20=polyoxyethylene sorbitan monolaureate, n about 20 TMB=3,5,3′,5′-tetramethylbenzidine

human keratinocytes = assay: Quantitative binding to skin (Example 15)
Experimental: as §1
The test for binding to skin was carried out with human keratinocytes in microtiter plates as follows. • 2× washing with PBS/0.05% Tween 20 • addition of 1 ml of 1% BSA in PBS and incubation for 1 h at room temperature, gentle swinging movements (900 rpm). • removal of the supernatant • addition of 100 μg of KBD in PBS with 0.03% Tween 20; incubation for 2 h at room temperature and gentle swinging movements (900 rpm). • removal of the supernatant • 3× washing with PBS/0.05% Tween 20 • incubation with 1 ml of monoclonal mouse anti-tag-His6 antibodies for 2-4 h at room temperature, gentle swinging movement (900 rpm) • 3× washing with PBS/0.05% Tween 20 • addition of peroxidase substrate (1 ml/Eppendorf vessels composition see below) reaction until a blue coloration (about 90 seconds). • reaction stopped with 100 μl of 2 M H2SO4. • the absorption was measured at 405 nm.
as §2
0.1 ml TMB solution (42 mM TMB in DMSO) +10 ml substrate buffer (0.1 M sodium acetate pH 4.9) +14.7 μl H2O2 3% strength

B1: Comparison protein YaaD from B. subtilis (His-tagged) (protein, UniProt P37527 1-294, looked up)
chain: MAQTGTERVKRGMAEMQKGGVIMDVINAEQAKIAEEAGAVAVMALERVPADIRAAGGVARMADPTIVEEVMNAVSIPVMAKARIGHIVEARVLEAMGVDYIDESEVLTPADEEFHLNKNEYTVPFVCGCRDLGEATRRIAEGASMLRTKGEPGTGNIVEAVRHMRKVNAQVRKVVAMSEDELMTEAKNLGAPYELLLQIKKDGKLPVVNFAAGGVATPADAALMMQLGADGVFVGSGIFKSDNPAKFAKAIVEATTHFTDYKLIAELSKELGTAMKGIEISNLLPEQRMQERGW
For B1, the “binding to hair, KBD-B compared with comparison protein” value (hair (human) [1]) was “significantly poorer binding”, the “measured absorption values at 405 nm (quantitative KBD activity test hair)” value (shortened to “measured absorption values at 405 nm”) (hair (human) [1]) was “A405 nm = 0.088” and the Absorption at 405 nm [2] was 0.088 A405 nm.

B2: KBD-B (keratin-binding domain B of human desmoplakin), expressed by the vector pQE30-KBD-B in E. coli (SEQ ID No.: 166) (protein)
chain: MRGSHHHHHHGSACELEPHTGLLLLSVQKRSMSFQGIRQPVTVTELVDSGILRPSTVNELESGQISYDEVGERIKDFLQGSSCIAGIYNETTKQKLGIYEAMKIGLVRPGTALELLEAQAATGFIVDPVSNLRLPVEEAYKRGLVGIEFKEKLLSAERAVTGYNDPETGNIISLFQAMNKELIEKGHGIRLLEAQIATGGIIDPKESHRLPVDIAYKRGYFNEELSEILSDPSDDTKGFFDPNTEENLTYLQLKERCIKDEETGLCLLPLKEKKKQVQTSQKNTLRKRRVVIVDPETNKEMSVQEGVDLQPSLIS
Work on B2 yielded a Relative absorption loss after 10% strength SDS treatment in % [3] of 80%, an Absorption at 405 nm [4] of 1.59 A405 nm and an Absorption at 405 nm [5] of 0.254 A405 nm. The Absorption at 405 nm [6] was 0.93, the Relative absorption loss after 10% strength SDS treatment in % [7] was 86% and the Absorption at 405 nm [8] was 0.185.

B3: KBD-B renatured: KBD-B (SEQ ID No.: 166) renatured by dialysis (protein, listed as Homo sapiens)
chain: B2 chain
modifications: renatured
B3 was tested, and the “measured absorption values at 405 nm” value (hair (human) [1]) was “A405 nm = 1.591”.

B4: panthenol-coupled KBD-B: KBD-B (SEQ ID No.: 166) coupled via the maleimidocaproic acid linker with panthenol, Example 22 (conjugate, listed as Homo sapiens)
chain: B2 chain
modifications: maleimidocaproic linker-panthenol conjugate
With B4 the “influence of coupling reaction temperature on hair binding activity” value (hair; FIG. 7) was “no decisive influence”, the “hair binding activity of the coupled protein” value (hair; above a KBD-B:panthenol mixing ratio of 1:4 (FIG. 7)) was “decrease” and the “hair binding activity of the coupled protein” value (hair; up to a KBD-B:panthenol mixing ratio of 1:2, compared with KBD-B without panthenol (FIG. 7)) was “remains virtually constant”.

B5: KBD-B denatured: KBD-B (SEQ ID No.: 166) from inclusion bodies, not renatured (protein, listed as Homo sapiens)
chain: B2 chain
modifications: denatured
In the case of B5, the “measured absorption values at 405 nm” value (hair (human) [1]) is reported as “A405 nm = 0.254”.

B6: KBD-B: keratin-binding domain B of human desmoplakin with N-terminal His tag, SEQ ID No.: 166, expressed in E. coli (protein, listed as Homo sapiens)
chain: B2 chain
B6 was tested, and the “binding to hair, KBD-B compared with comparison protein” value (hair (human) [1]) was “considerable superiority”, the “Relative absorption loss after 10% strength SDS treatment in %, hair” value (hair (human) [9]) was 86% and the “Relative absorption loss after 10% strength SDS treatment in %, skin” value (human keratinocytes; relative to untreated skin) was 80%. For the same molecule, the “Absorption at 405 nm, binding to skin after 10% strength SDS treatment” value (human keratinocytes; values standardized to the surface, after 10% strength SDS treatment) was 0.185 and the “Absorption at 405 nm, binding to skin” value (human keratinocytes; values standardized to the surface, no SDS treatment) was 0.93.

Source: patent US20090098076A1, “Method For the Production of a Keratin-Binding Effector Molecule” (BASF SE, priority 2005, published 2009)
